The source of these data is the nanobody polyreactivity screen of Harvey et al. (2022).

A short description of the data set: yeast display, Sf9 membrane polyspecificity reagent, FACS + sequencing; frameworks hold sequencing errors. The gist of the method: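 Sorting gates, low and high (top ~1%), were placed on anti-HA fluorescence to track expression and on streptavidin fluorescence to track reagent binding. A clone's polyreactivity label is taken from the gate it came out of. The reagent was 10% biotinylated, detergent-solubilized Sf9 membrane, applied for 1 hour at 4 °C to galactose-induced yeast display cells.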
As to “QVQIVESRGGLVQAGGSLRLSCAASGSNLHYYTMGWYRQAPGNEREFVAGISWSGGRTYYADSVKGRFTISRDNAKNTVYFQMNSRKPEDTAVYYCNRQARRGFHRYHLYGYGYWGQGTQVTVSS”, the “polyreactivity (PSR sort gate)” value is recorded as “high polyreactivity”.
As for “QVQLVESGVGLVQAGGSLRLSCASSGSIFTPYAMGCYRQAPGKESELVAAISRSGGSTYYADSVKGRFTISRDNAKNTVFLQMNRLKPEDTAVYYCAVVVYDIYGYESDYWGEGTQVTVSS”, the “polyreactivity (PSR sort gate)” value is given as “low polyreactivity”.
“QVQLVESGGGLVQAGGSLRLSCAASGNTFIRNVMGWYRQAPGKERELVAGIRTGGSTFYADSVKGRFTISRDNAKNTVYLQMNSLKPEDTAVYYCNADVGDEGNLPYVIRPMDYWGQGTQVTVSS”: the “polyreactivity (PSR sort gate)” value is “low polyreactivity”.
Regarding “QVQLVDSGGVLVQAVGSLRLSCAASGLIFYSNAMGWYRQAPGKERELVATISWSGGSTYYADSVKGRFTSSRDNAKNTVYLQMNSLTPEDTAVYYCAAVTHPAWAVEYDYWGQGTQVTVSS”, the “polyreactivity (PSR sort gate)” value was “high polyreactivity”.
As for “QVQLVESGGGLVQAGGSLRLSCAASGFTFKGNAMGWYRQAPGKERELVATITQSAGSTYYADSVKGRFTISRDNAKNTVYLQMNSLKPEDTAVYYCNADPITLYYYSWYNYWGQGTQVTVSS”, the “polyreactivity (PSR sort gate)” value is listed as “low polyreactivity”.
In the case of “QVQLVESGGGLVQAGGSLRLSCAASGFTFPVYAMGWYRQAPGKEREFVAAITYIGGSTDADSVKGRFTISRDNAKNTVYLQMNSLKPEDTAVYYCAADIITEYRADYLVYLEYDYWGQGTQVTVSS”, the “polyreactivity (PSR sort gate)” value was “low polyreactivity”.
Turning to “QDQLVESGGGLLQAGGSLRLSCASSGSIFANYVMGWYRQAPGKEREYFAGISRSGGSTYYADSVKGRFKISRDNAKNTVYLQMTSLKPEDTAVYYCNAGAGQRVSGHSFEYWGQGTQVTVSS”, the “polyreactivity (PSR sort gate)” value is listed as “high polyreactivity”.
On to “QVQLVESGGGLVQAGGSLRLTCAASGSIFALYAMGWYRQAPGKERELVAANADSVKGRFTISRDNAKNTVYLQMNSLKPEETAVYYCAKDITGGSGLGSWIYSEYDYWGQGTQVTVSS”, for which the “polyreactivity (PSR sort gate)” value is given as “low polyreactivity”.
Regarding “QVQLVESGGGLVQAGGSLRLSCAASGITFVHYAMGWYRQAPGKERELVASITRRGGSTYYADSVKGRFTISRDNAKNTVYLQMHSLKPEDTAVYYCAARWSAWSGYIFDYWGQGTQVTVSS”, the “polyreactivity (PSR sort gate)” value is “high polyreactivity”.
Regarding “QVQLVESGGGLVKAGGSIRLSCAASGSIFTWYAMGWYRQAPGKESELVAAISEDGGSTYYADSVKGRFTISRDNAKNSVFLQMNSLKPEDTAVYYCATPVASVTGYDYWGQGTQVTVSS”, the “polyreactivity (PSR sort gate)” value is “low polyreactivity”.
The result for “QVQLVESGGGLVQAGGSLRLSCAASGSTFYGYTMGWYRQAPGKERELVAAISSSGSSTYYADSVKGRFTISRDNAKNTVYLQMNSLKPVDTAVYYCAAATRVPGHGSTSYYYWGQGTQVTVSS” reads “high polyreactivity”.
On to “QVQLVESGGGLVQAGGSLRLSCAASGSIFVSNAMGWSRPAPGKDRELVAGINYSGGSTYYADSVKGRFTISRDNAKNTVYLQLTSLKPEDTAVYYCARRRPYQWPYNYWGQGTQVTVSS”, for which the “polyreactivity (PSR sort gate)” value was “high polyreactivity”.
Regarding “QVQLVESGGGLVQAGGRLRLSCAASGRTFYRNAMGWYRQAPGKERELVAGISVRGGRTYYADSVKGRFTISRDNAKNTVYLQMNSLKPEDTAVYYCNKRLSSSLSLKYDYWGQGTQVTVSS”, the “polyreactivity (PSR sort gate)” value is recorded as “high polyreactivity”.
As to “QVQLEESGGGLVQAGGSLRLSCAASGRIFLYNAMGWYRQAPGKERELVAAISRSGGSTYYADSVKGRFTISRDNAKNTVYLQMNSLKPEDTAVYYCAVGSPYGCRAPWVRGGDYWGQGTQVTVSS”, the “polyreactivity (PSR sort gate)” value is “high polyreactivity”.
Consider “QVQLVESGGGLVQAGGSLRLSCAASGFTFYLYAMGWYRQAPGKERELVAAISSGSTTYYADSVKGRFTISRDNAKNTVYLQMNSLKPEDTAVYYCNAYYVNYVSNYEYWGQGTQVTVSS”, for which the “polyreactivity (PSR sort gate)” value is listed as “high polyreactivity”.
Regarding “QVQLVESGGRLVQAGGSLRLSCAASGRIFVRNAKGWYRQAPGKERELVADITNGGSTNYADSVKGRFTISRDNAKNTVYLQMNSLKPEDTAVVYWAADTLGVYDGDYWGQGTQVTVSS”, the “polyreactivity (PSR sort gate)” value is recorded as “low polyreactivity”.
In the case of “QVQLVESGRGLVQAGGSLRLSCAASGFTFDGNAMGWYRQAPGIERELFARITWDDGSTYYADSVKGRFTISRDNAKNTVYLQMNSLNPEDTAVYYCAAEWCTDGYQVLPVDYDYWGQGTQVTVSS”, the “polyreactivity (PSR sort gate)” value is reported as “low polyreactivity”.
The same measure for “QVQLVESGGGLVQAGGSLRLSCAASGSIFPRNAMGWYRQAPGKERELVAAITVSDGRTYYADSVKGRFTISRDNAKNTVYLQMNSLKPEDTAVYYCAAGYTYYSLYGYWGQGTQVTVSS”: “low polyreactivity”.
For the sequence “QVQLVESGGGLVQAGGSLRLSCAASGSTFVSNAMGWYRQAPGKERELVAGISWSGGSTYYADSVKGRFTISRDNAKNTVYLQMHSLKPEDTAVYYCNAVYRPRQFDYWGQGTQVTVSS”, the “polyreactivity (PSR sort gate)” value is recorded as “low polyreactivity”.
In the case of “QVQLVESGGGLVQAVGSLRLSSAASGSIFYVYAMGWYRQAPGKERELVAAMTNYADSVKGRFTISRDNAKNTVYLQMNSLKPEDTAVYYCAADWWRVEMDYWGQGTQVTVSS”, the “polyreactivity (PSR sort gate)” value is recorded as “low polyreactivity”.
On to “QVQLVESGGGLVQAGGSLRLSCAASGSIFIWYSMGWYRQAPGKERELVASITYSAGRTYYADSVKGRFTISRDNAKNTVYLQMNSLKPEDTAVYYCAADSPYVYTLDSYGEGDYWGQGSQVTVSS”, for which the “polyreactivity (PSR sort gate)” value is reported as “low polyreactivity”.
Consider “QVQLVESGGGLVQAGGSLRLSCAASGITFYRYAMGWYRPAPGKERELVAAISSRGGRTYYADSVKGRFTISRDNEKNTVYLQMNSLKPEDTGVYYCAKGGIVGSTLEYDYWGQGTQVTVSS”, for which the “polyreactivity (PSR sort gate)” value is on record as “high polyreactivity”.
The result for “QVQLVESGGGLVQAGGSLRLSCAASGRIFGRNAMGWYRQAPGKERELVASITSGGGTNYADSVKGRFTISRDNAKNTVYLQMNSLKPEDTAVYYCAAKRHLEGYSGSIGRYYYWGQGTQVTVSS” reads “low polyreactivity”; that for “QVQLVESGGGLVQAGGSLRLSCAASGSIFPFNAMGWYRQAPGKERELVAAIRWSDGRTYYADSVKGRFTISRDNAKNTVYLQMNSLKPEDTAVYYCAAKSYWGQGTQVTVSS”, “high polyreactivity”; that for “QVQLVESGGGLVQAGGSLRLSCAASGSIYNKNAMGWNRQAPGKERELVAAINQSGGGTYYADSVKGRFTISRDNAKNTVYLQMNSLKPEDTAVYYCAAQVWAGIRYYHMYYWGQGTQVTVSS”, “low polyreactivity”.
The same measure for “QDQLVESGGGLVQAGGSLRLSCAASGLTFEKYAMGWYRQAPGKERELVAAISQDGGSTYYADSVKGRFTISRDNAKNTVYLQMNSLKPEDTAVYYCAAEDPDSWLPWDLFDYWGQGTQVTVSS”: “low polyreactivity”; for “QVQLVESGGGLVQAGGSLRLSCAASGFTFVRNTMGWYRQPPGKETELVAAINRSGGNTYYADSVKGRFTISRDNAKNTVYLQMNCLKPEDTAVYYCAADGFGRRDYYYWGQGTQVTVSS”: “high polyreactivity”; for “QVQLVESGGGLVQSGVSLRLSCAASGIIFFSNTMGWYRQAPGKEREFVAAITWSTGNTYYADSVKGRFTISRDNAKNTVYLQMNSLKPEDTAVYYCYAEFLVITWYGGVEFDYWGQGTQVTVSS”: “low polyreactivity”.
Regarding “QVQLVETGGGLVQAGGTLRLSCAPSGYTIYFYALGWDIQAPGTERELVAAISGSGGRTYYADSVKGRFTISRDNAKNTVYLQMNSLKPEDTAVYYCAARKYKRIYRISSGIGYYWGQGTQVTVSS”, the “polyreactivity (PSR sort gate)” value was “high polyreactivity”.
Take “QVQLVDSGGGLVQAGGSLRLSCAASGSTFDPYTMGWYRQAPGTERELVAGMTGGGSTYYADCVKGRFTISRDNAKNTVYLQMNSLKPEDTAVYYCARDYSYYKGPDGHYWGQGTQVTVSS”: the “polyreactivity (PSR sort gate)” value was “low polyreactivity”.
For “QVQLVESGGGLVQAGGSLRLSCAASGFIFAQNAMGWYRQAPGKEREFVAAISSRGSRTYYADSVKGRFTISRDNAKNTVYLQMNSLKPEDTAVYYCAASRRTRSMNYWGQGTQVTVSS”, the “polyreactivity (PSR sort gate)” value is “high polyreactivity”.
Turning to “QVQLVESRGGLVQAGGSLRLSCAASGSIFDGYAMGWYRQAPGKERELVAAITWSGGRTYYADSVKGRFTISRDNAKNTVYLQMNSLKPEDTAVYYCNAVTGSWRYDYWGQGTQVTVSS”, the “polyreactivity (PSR sort gate)” value was “high polyreactivity”.
Consider “QVQLVESGGGLVQAGGSLSLSCAASGLTFDTNAMGWYRQAPGKERELVAAITDSGDSTYYADSVKGRFTISRDNEKNTVYLQMNSLKPEDTAVYYCAARRSNLAWGRRRMYYWGQGTQVTVSS”, for which the “polyreactivity (PSR sort gate)” value was “high polyreactivity”.
With “QVQRVESGGGLVQAGGSLRLSCAAAGLTFYGYAMGWYRQAPGKERELVAAITRSGGSTYYADSVKGRFTISRDNAKNTVYLQMNSLKPEDTAVYYCAAEEEYLYQSNRLHPYDYWGQGTQVTVSS”, the “polyreactivity (PSR sort gate)” value is “low polyreactivity”.
With “QVQLVESGGGLVQAGGSLRLSCAASGSTFERYAMGWYRQEPGKEREFVAAISAIGDSTYYADSVKGRFTITRDNAKNTVYLQMNILKPEDTAVYYCAARYTPYHIGRGYYYWGQGTQVTVSS”, the “polyreactivity (PSR sort gate)” value is “high polyreactivity”.
The same measure for “QVQLVESGGGLVQAGGSLRLSCAASGSTFYPNAMGWYIQAPGKERELVADITISGGRTYYADSVKGLFTISRDNAKNTVYLQMNSLKPEDTAVYYCNTRGIFFQSQTHDYWGQGTQVTVSS”: “low polyreactivity”; for “QVQLVESGGGLVQAGGSLRLSCAASGSIFPPYAMGWYRQAPGKERELVATITIRGGSTYYADSVKGRFTISRDNAKNTVYLEMNSLKPDDTAVYYCAADYTKYYRSYYYWGQGTQVTVSS”: “high polyreactivity”.
With “QVQLVESGGGLVQAGGSLRLICAASGSTFAYYVMGWYRPAPGTEREFVATITGSGGRTYYADSVKGRFTISRDNAKNTVYLQMISLKPEDTAVYYCAAGVYTGQHEYDYWGQGTQVTVSS”, the “polyreactivity (PSR sort gate)” value was “low polyreactivity”.
Consider “QVQLVESGGGLVQAGGSLRLSCAASGSIFYAYARGWYRQAPGKERELVATISSVGSTYYADSVKGRFTISRDNAKHTVYLHMNSLKPEDTAVHYCAKQRIVVYKTGYDYWGQGTQVTVSS”, for which the “polyreactivity (PSR sort gate)” value was “low polyreactivity”.
In the case of “QVQLVESGGGLVQAGGSLRLSCADSGLIFEDYAMGWYRQAPGKERELVAAIDWGGGSTYYADSVKGRFTISRDNAKNTVYLQMNSLKPEDTAVYYCAADSYFSYRYNYWGQGTQVTVSS”, the “polyreactivity (PSR sort gate)” value is reported as “low polyreactivity”.
For the sequence “QVQLVESGGGLVQAGGSLRLSCAASGRTFGVYVMGWSRQAPGKERELVAVITISGGSTYYADSVKGRFTISRDNAKNTVYLQMNSLKPEDTAVYYCAARTYYGYDYWGQGTQVTVSS”, the “polyreactivity (PSR sort gate)” value was “high polyreactivity”.
